Experimental data published in US20070065425A1 (LABORATOIRE FRANCAIS DU FRACTIONNEMENT ET DES …, published 2007).

T1: Factor VIII fragment 379-546Mut (R484A, Y487A, R489A, P492A), tagged (UniProt P00451 398-565, labeled in vitro with L-(35S) methionine)
T1 construct: Produced in rabbit reticulocyte lysate
T1 sequence: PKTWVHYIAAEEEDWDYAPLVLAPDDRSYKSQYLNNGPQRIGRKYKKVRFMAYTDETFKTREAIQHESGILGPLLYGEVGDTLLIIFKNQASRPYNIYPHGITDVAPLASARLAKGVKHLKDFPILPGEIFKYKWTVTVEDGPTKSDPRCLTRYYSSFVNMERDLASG

B1: BOIIB2 antibody (antibody, human IgG4, kappa, V domains shown)
VH: QVQLQESGPGLVKPSETLSLTCTVSGDSISDYYWSWIRQPPGKGLEWIGYFFYSGGSNYNPSLKSRVTMSVDTSKNQFSLKLGSVTAADTAVYYCARSQLRYYLDVWGQGTTVTVSS
VL: EIVLTQSPGTLSLSPGERATLSCRASQSVDSNYLAWYQQKPGQAPRVVIYGASNRATGIPDRFSGSGSGTEFTLTISRLDPEDFAVYYCQQYGSFFGQGTRLEIKR
notes: Human monoclonal IgG4 from a haemophilia A patient; also called anti-A2 antibody; FVIII anti-domain A2 BOIIB2 human antibody
B2: 30D1 monoclonal anti-idiotypic antibody (antibody, mouse IgG1, V domains shown)
VH: EVQLQQSGPELVKPGASMKISCKASGYSFTDYTMNWVKQSHGKNLEWIGLINPYNVISSYNQKFKGKATLTVDKSSSTAYMELLSLTSEDSAVYYCARKGYGSSMFAYWGQGTLVTVSA
VL: DIVMTQSHKFMSTSVGGRVSITCKASQDVTTAVAWYQQKPGQSPKLLIYSASYRYTGVPDRFTGSGSGTDFTFTFSSVQAEDLAVYYCQQHYSIPWTFGGGTKLEIKR
notes: Tested as hybridoma supernatant and Protein G purified (SPR); also called 30D1 anti-Id; 30DA1

Assays:
[1] = target: T1, Factor VIII fragment 379-546Mut (R484A, …); experiment: immunoprecipitation of 35S-labelled fragment by BOIIB2 on Protein A Sepharose
Procedure: The immunoprecipitation of the transcribed genes is carried out as follows. Sample dilutions containing the specific antibodies are mixed with 40 up of Protein A Sepharose (Pharmacia) in 500 up of a suitable buffer, and the mixture is gently stirred for 1 hour at 4° C. The non-fixed antibodies are eliminated by means of a succession of centrifugations and washings. The complex antibody-Protein A Sepharose is resuspended in 300 up of buffer supplemented with 3 up of polypeptides of Factor VIII labeled in vitro with methionin L-(³⁵S), in order to incubate at 4° C. for 2 hours. The complexes antigens/antibodies are eluted from the beads by boiling for 3 minutes in 30 up of denaturating buffer and the radioactivity is counted. A second aliquot is analyzed by SDS-PAGE and visualized by autoradiography.
The fragments were immunoprecipitated by the human BOIIB2 antibody bound to Protein-A Sepharose. After washing, the complex was eluted and the radioactivity measured (in CPM) by scintillation and charged on SDS-PAGE, followed by an autoradiography. […] The anti-c-myc 9E10 antibody and the human plasma were used as positive and negative controls, respectively.

BOIIB2 antibody = target: B1; experiment: SPR (BIAcore), BOIIB2 immobilized on CM5, 30D1 as analyte
Procedure: The kinetics of fixation of the 30D1 anti-idiotypic antibody to the BOIIB2 inhibitor antibody was assessed by the method <<Surface plasmon resonance Biacore>> using the Pharmacia Biosensor BIAcore (Pharmacia Biosensor AB, Uppsala, Sweden). The BOIIB2 antibodies were immobilized on an activated surface of a probe CM5. The 30D1 anti-idiotypic antibodies were infused in several concentrations of immobilized BOIIB2 on the surface of the probe.

Row | binding result [1] | Kd (BOIIB2 antibody) [nM] | koff (BOIIB2 antibody) [s⁻¹] | kon (BOIIB2 antibody) [M⁻¹ s⁻¹] | Binder
1 | no binding |  |  |  | B1
2 |  | ≤ 0.17 | ≤ 1e-05 | 60000 | B2
